The results in this text go back to patent US20110311517A1 (SHENOGEN PHARMA GROUP, published 2011).

The target of assay [1] is T1, biotinylated ERα36 (chemically synthesised target peptide, SEQ ID NO:2) (human, labeled with biotin (site not stated)).
T1 construct: also called biotinylated ER36; biotinylated ERα36 peptides
T1 peptide: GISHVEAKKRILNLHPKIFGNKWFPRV
Briefly: ELISA on biotinylated ERα36 (streptavidin plate), ScFv 0.28 µg/ml, well 2. As for the experimental part: (§1) Streptavidin-coated 96-well plates were washed twice with PBS. Biotinylated ERα36 (final concentration of 20 μg/ml) was added into each testing well. The plates were incubated for 2 h at room temperature and washed three times with PBST. Re-natured ScFv samples (100 μl, S14A1r1, S24A2r2, S33A2r1, S41A3r3, S53A1r1, S66A1r1 and S72A2r1) were added into the testing wells respectively. Each ScFv was diluted five times in five gradients, and two parallel wells were loaded with each ScFv at each gradient. The plates were incubated at 37° C. for 1 h. The plates were washed three times with PBST, followed by addition of 100 μl anti-His-6 mouse monoclonal antibody (1:2000 dilution) per well and 1 h incubation at 37° C. The plates were washed three times with PBST, followed by addition of 100 μl goat anti-mouse-HRP (1:2500 dilution) per well and 1 h incubation at 37° C. The plates were washed six times with PBST, followed by addition of 100 μl OPD to develop under the protection from light. The reactions were terminated by adding 50 μl 2M H₂SO₄ to each well, and data were collected by microplate reader at 490 nm.
(§2) One positive control and three negative controls were performed in parallel. The positive control used rabbit anti-ER multi-clonal antibody serum in replacement of the ScFv re-natured sample and goat-anti-rabbit-HRP in replacement of goat-anti-mouse HRP.
In general terms: In an ELISA, binding on a coated surface is turned into a signal by an enzyme label.

The target of assay [2] is T1, biotinylated ERα36 (chemically …). Nature of the assay: ELISA on biotinylated ERα36 (streptavidin plate), ScFv 0.28 µg/ml, well 1. Here is the method:
as §1, §2

Assay [3] concerns the target T2, recombinant human ERα36 (hER-α36, SEQ ID NO:1) expressed in HEK293 cells (human, UniProt P03372 174-457).
T2 construct: Present in lysates of ERα36-expressing HEK293 cells, separated by SDS-PAGE and blotted on PVDF (Western blot); also called recombinant ERα36
T2 sequence: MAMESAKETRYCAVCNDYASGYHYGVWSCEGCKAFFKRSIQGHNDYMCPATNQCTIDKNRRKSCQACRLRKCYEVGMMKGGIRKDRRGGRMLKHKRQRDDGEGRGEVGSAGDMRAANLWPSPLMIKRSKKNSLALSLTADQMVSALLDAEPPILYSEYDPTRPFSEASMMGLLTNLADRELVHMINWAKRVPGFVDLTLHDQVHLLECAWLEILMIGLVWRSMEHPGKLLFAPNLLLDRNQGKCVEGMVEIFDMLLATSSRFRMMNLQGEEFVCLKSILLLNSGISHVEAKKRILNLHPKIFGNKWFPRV
Nature of the assay: Western blot on lysates of ERα36-expressing HEK293 cells, anti-His-HRP. As for the experimental part: ScFv1˜ScFv7 obtained after purification and renaturation were characterized using Western Blot. HEK293 cells were artificially constructed to express recombinant ERα36. Human breast cancer cells SK-BR-3 and ERα36-expressing HEK293 cells were cultured, harvested, and lysed by lysis buffer to obtain the cell lysates respectively. 20 μg/lane of the lysates were then loaded for SDS-PAGE. After electrophoresis, the protein samples were electronically transferred to PVDF membrane labeled with ScFv1˜ScFv7 respectively. The membranes were blocked with non-fat milk and anti-His-HRP was added to show the resulting images (FIG. 16).
For orientation: Immunoblotting shows a protein as a band on a membrane.

In assay [4] the target is T1, biotinylated ERα36 (chemically …). Briefly: phage ELISA, biotinylated ERα36 on neutravidin plate, well 1. As for the experimental part: (§3) Neutravidin-coated plates (purchased from Pierce) were washed with washing buffer (PBS containing 0.1% Tween-20) and all wells of the plates were blocked by incubating in blocking buffer at 4° C. for 1-2 h. Then the blocked plates were taken away from the blocking buffer, washed six times with washing buffer and dried upside-down. Biotinylated ERα36 in PBS (100 μl) was added to each testing well of the plates, incubated for 1-2 h at room temperature and removed. The plates were washed once with washing buffer. Phage solution (100 μl) was added per well and incubated for 1-2 h at room temperature. The plates were washed six times with the washing buffer. HRP-conjugated rabbit anti-M13 antibody (purchased from GE Healthcare) was diluted by 1:5,000 in blocking buffer. The diluted HRP-conjugated rabbit anti-M13 antibody (100 μl) was added to each well and incubated for 1 h at room temperature followed by washing six times with washing buffer.
(§4) HRP substrate solution (100 μl) was added to each testing well and incubated for 30 min at room temperature. The signals were detected using a microplate reader at 490 nm. […] The positive controls were plates coated with M13 phage and detected with HRP-conjugated anti-M13 antibodies.

For assay [5] the target is unchanged. Briefly: phage ELISA, biotinylated ERα36 on neutravidin plate, well 2. Here is the method:
as §3, §4

Assay [6] shares this target. Nature of the assay: phage ELISA, biotinylated ERα36 on neutravidin plate, well 3. Here is the method:
as §3, §4

B1: human anti-ERα36 ScFv3 (purified, re-natured) (scFv)
scFv: QSVLTQPASVSGSPGQSITISCTGTSSDVGGYNYVSWYQQHPGKAPKLMIYDVSKRPSGVSNRFSGSKSGNTASLTISGLQAEDEADYYCSSYTSSSTLVFGGGTKLTVLGSGGSTITSYNVYYTKLSSSGTEVQLVQSGGGVAQPGRSLRLSCAASGITFNSYGMHWVRQAPGKGLEWVAVMPYDGSNEYYADSVKGRFTISRDNSKNTLYLQMNSLRAEDTAVYYCAKGSGMVQLWADAFDVWGQGTMVTVSSAS
notes: also called S33; S33A2r1
With B1, the OD490 in assay [1] came out at 0.171 OD490; in assay [2], 0.159 OD490. In addition, the binding result in assay [3] is listed as “binds”.

B2: human anti-ERα36 ScFv7 (purified, re-natured) (scFv)
scFv: QSVLTQPPSVSAAPGQKVTISCSGSSSNIGNNYVSWYQQLPGTAPKLLIYDNNKRPSGIPDRFSGSKSGTSATLGITGLQTGDEADYYCGTWDSSLSAGVFGGGTKLTVLGSGGSTITSYNVYYTKLSSSGTEVQLVQSGGGLVQPGRSLRLSCAASGFTFDDYAMHWVRQAPGKGLEWVSGISWNSGSIGYADSVKGRFTISRDNAKNSLYLQMNSLRAEDTALYYCAKEGDSSGWSPDYWGQGTLVTVSSAS
notes: also called S72; S72A2r1
Regarding B2, the binding result in assay [3] is given as “binds”.

B3: phage-displayed ScFv7 (phage clone 12) (scFv)
scFv: QSVLTQPPSVSAAPGQKVTISCSGSSSNIGNNYVSWYQQLPGTAPKLLIYDNNKRPSGIPDRFSGSKSGTSATLGITGLQTGDEADYYCGTWDSSLSAGVFGGGTKLTVLGSGGSTITSYNVYYTKLSSSGTEVQLVQSGGGLVQPGRSLRLSCAASGFTFDDYAMHWVRQAPGKGLEWVSGISWNSGSIGYADSVKGRFTISRDNAKNSLYLQMNSLRAEDTALYYCAKEGDSSGWSPDYWGQGTLVTVSSAS
notes: The phage coat protein fusion partner is not described; also called phage single clone No. 12
On to B3, for which the “ELISA Signal (OD490)” value in assay [4] stood at 0.381 OD490; in assay [5], 0.388 OD490; in assay [6] it was 0.383 OD490.

B4: human anti-ERα36 ScFv6 (purified, re-natured) (scFv)
scFv: EIVMTQSPGTLSLSPGERATLSCRASQSVDSNFLAWYQQRPGQAPRLLIYGVSSSATGIPDRFSGSGSGTDFTLSIDRLEPEDFAVYYCQQYGSSPTFGGGTKLEIKRSGGSTITSYNVYYTKLSSSGTQVQLQESGGGLVQPGRSLRLSCAASGFTFDDYAMHWVRQAPGKGLEWVSGISWNSGSIGYADSVKGRFTISRDNAKNSLYLQMNSLRAEDTAVYYCARSGDYGAFDIWGQGTMVTVSSAS
notes: also called S66; S66A1r1
B4: the binding result in assay [3] is recorded as “binds”.

B5: human anti-ERα36 ScFv2 (purified, re-natured) (scFv)
scFv: QSALTQPASVSGSPGQSITISCTGTSSDVGGYNYVSWYQQHPGKAPKLMIYDVSKRPSGVSNRFSGSKSGNTASLTISGLQAEDEADYYCSSYTSSSTLVFGGGTKLTVLGSGGSTITSYNVYYTKLSSSGTQVQLLESGAEVKKPGASVKVSCKASGYTFTAYYMHWVRQAPGQGLEWMAMIDPSGSITSYAQKFQGRVTMSRDTSTSTLYMELSSLRSDDTAVYYCARDLKEGFSVPGAFDIWGQGTMVTVSSAS
notes: also called S24; S24A2r2
B5: the results for the OD490 in assay [1] and in assay [2] were 0.09 OD490 and 0.093 OD490, respectively. Also, the binding result in assay [3] is “binds”.
